Data from patent US20140213531A1 (POLYPHOR, published 2014).
Each block holds one binder with its values, some of them ahead of it.

Key:
Experiment in all cases: enzyme inhibition, pNA substrate
[1] = molecular target: T1, Chymotrypsin, from human pancreas (human, UniProt P17538 19-263)
T1 construct: purified natural enzyme, bought

[2] = molecular target: T2, Tryptase, from human lung (human, UniProt Q15661 31-275, limits assumed)
T2 construct: purified natural enzyme, bought

[3] = molecular target: Thrombin, from Human Plasma, high activity (human, UniProt P00734 328-622)
[4] = molecular target: T3, Trypsin, Iodination grade, from human pancreas (human, UniProt P07477 24-247)
T3 construct: purified natural enzyme, bought

[5] = molecular target: T4, Coagulation Factor Xa, from uman plasma (human, UniProt P00742 41-179; P00742 235-488, limits assumed)
T4 construct: purified natural enzyme, bought; also called FXa
T4 sequence (P00742 41-179 limits assumed, chain 1 of 2): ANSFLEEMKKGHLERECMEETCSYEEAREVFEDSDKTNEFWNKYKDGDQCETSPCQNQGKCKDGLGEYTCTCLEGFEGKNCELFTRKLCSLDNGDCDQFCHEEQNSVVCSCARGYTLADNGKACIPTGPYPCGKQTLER
T4 sequence (P00742 235-488 limits assumed, chain 2 of 2): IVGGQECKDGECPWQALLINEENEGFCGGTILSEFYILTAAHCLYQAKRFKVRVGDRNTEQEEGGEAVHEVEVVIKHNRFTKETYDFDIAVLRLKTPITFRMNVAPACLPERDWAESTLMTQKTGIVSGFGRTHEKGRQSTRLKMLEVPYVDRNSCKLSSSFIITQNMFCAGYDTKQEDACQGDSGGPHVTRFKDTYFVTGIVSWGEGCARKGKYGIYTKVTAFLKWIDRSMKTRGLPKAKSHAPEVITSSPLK

Chymase, from human skin = molecular target: T5, Chymase, from human skin (human, UniProt P23946 22-247)
T5 construct: purified natural enzyme, bought
T5 sequence (looked up): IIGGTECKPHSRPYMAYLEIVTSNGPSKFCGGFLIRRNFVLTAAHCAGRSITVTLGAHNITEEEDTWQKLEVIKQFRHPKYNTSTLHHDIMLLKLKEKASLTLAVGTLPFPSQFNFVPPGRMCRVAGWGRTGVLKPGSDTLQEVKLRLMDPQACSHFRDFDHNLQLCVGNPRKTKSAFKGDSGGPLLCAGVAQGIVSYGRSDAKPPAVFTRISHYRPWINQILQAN

[6] = molecular target: T6, Urokinase from human urine (human, UniProt P00749 21-431, limits assumed)
T6 construct: purified natural enzyme, bought

T1 sequence (P17538 19-263): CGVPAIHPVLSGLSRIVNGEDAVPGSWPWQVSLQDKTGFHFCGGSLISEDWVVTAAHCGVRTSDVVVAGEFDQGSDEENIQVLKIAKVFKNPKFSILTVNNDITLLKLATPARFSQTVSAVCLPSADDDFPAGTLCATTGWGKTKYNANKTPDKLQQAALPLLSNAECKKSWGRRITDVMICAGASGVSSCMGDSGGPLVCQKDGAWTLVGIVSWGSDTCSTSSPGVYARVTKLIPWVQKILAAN
T2 sequence (Q15661 31-275 limits assumed): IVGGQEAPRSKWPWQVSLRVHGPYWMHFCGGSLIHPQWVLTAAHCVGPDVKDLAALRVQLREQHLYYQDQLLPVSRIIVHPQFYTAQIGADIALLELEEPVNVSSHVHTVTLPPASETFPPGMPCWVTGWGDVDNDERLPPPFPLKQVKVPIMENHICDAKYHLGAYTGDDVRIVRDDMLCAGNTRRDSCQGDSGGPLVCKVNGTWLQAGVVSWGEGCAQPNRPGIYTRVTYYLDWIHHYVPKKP

B4: Example 122 (peptide)
peptide: XCTASIPPQCY
HELM: PEPTIDE1{[Nle].C.T.A.S.I.P.P.Q.C.Y.[dP].F}$PEPTIDE1,PEPTIDE1,2:R3-10:R3|PEPTIDE1,PEPTIDE1,1:R1-13:R2$$$V2.0
SMILES: CCCC[C@@H]1NC(=O)[C@H](Cc2ccccc2)NC(=O)[C@H]2CCCN2C(=O)[C@H](Cc2ccc(O)cc2)NC(=O)[C@@H]2CSSC[C@H](NC1=O)C(=O)N[C@@H]([C@@H](C)O)C(=O)N[C@@H](C)C(=O)N[C@@H](CO)C(=O)N[C@@H]([C@@H](C)CC)C(=O)N1CCC[C@H]1C(=O)N1CCC[C@H]1C(=O)N[C@@H](CCC(N)=O)C(=O)N2
% inhibition at 100 µM [6]: 11.1% | % inhibition at 100 µM [3]: 0% | % inhibition at 100 µM [4]: 19% | % inhibition at 100 µM [5]: 19.6%

B5: Example 97 (peptide)
peptide: XCTASIPPQCX
HELM: PEPTIDE1{[Nle].C.T.A.S.I.P.P.Q.C.[Cha].[dP].P}$PEPTIDE1,PEPTIDE1,2:R3-10:R3|PEPTIDE1,PEPTIDE1,1:R1-13:R2$$$V2.0
SMILES: CCCC[C@@H]1NC(=O)[C@@H]2CCCN2C(=O)[C@H]2CCCN2C(=O)[C@H](CC2CCCCC2)NC(=O)[C@@H]2CSSC[C@H](NC1=O)C(=O)N[C@@H]([C@@H](C)O)C(=O)N[C@@H](C)C(=O)N[C@@H](CO)C(=O)N[C@@H]([C@@H](C)CC)C(=O)N1CCC[C@H]1C(=O)N1CCC[C@H]1C(=O)N[C@@H](CCC(N)=O)C(=O)N2
notes: also called Ex. 97
% inhibition at 100 µM [6]: 11.9% | % inhibition at 100 µM [3]: 11.6% | % inhibition at 100 µM [2]: 0% | % inhibition at 100 µM (Chymase, from human skin): 0%

B6: Example 85 (peptide)
peptide: XCTASXPPQCY
HELM: PEPTIDE1{[Nle].C.T.A.S.[CC(C)(C)C[C@H](N[*:1])C(=O)[*:2]].P.P.Q.C.Y.[dP].P}$PEPTIDE1,PEPTIDE1,2:R3-10:R3|PEPTIDE1,PEPTIDE1,1:R1-13:R2$$$V2.0
SMILES: CCCC[C@@H]1NC(=O)[C@@H]2CCCN2C(=O)[C@H]2CCCN2C(=O)[C@H](Cc2ccc(O)cc2)NC(=O)[C@@H]2CSSC[C@H](NC1=O)C(=O)N[C@@H]([C@@H](C)O)C(=O)N[C@@H](C)C(=O)N[C@@H](CO)C(=O)N[C@@H](CC(C)(C)C)C(=O)N1CCC[C@H]1C(=O)N1CCC[C@H]1C(=O)N[C@@H](CCC(N)=O)C(=O)N2
notes: also called Ex. 85
% inhibition at 100 µM [3]: 12.6% | % inhibition at 100 µM [4]: 0% | % inhibition at 100 µM [5]: 25.6%

B8: Example 95 (peptide)
peptide: XCTASIPPQCX
HELM: PEPTIDE1{[Nle].C.T.A.S.I.P.P.Q.C.[O=C([C@H](Cc1ccc2ccccc2c1)N[*:1])[*:2]].[dP].P}$PEPTIDE1,PEPTIDE1,2:R3-10:R3|PEPTIDE1,PEPTIDE1,1:R1-13:R2$$$V2.0
SMILES: CCCC[C@@H]1NC(=O)[C@@H]2CCCN2C(=O)[C@H]2CCCN2C(=O)[C@H](Cc2ccc3ccccc3c2)NC(=O)[C@@H]2CSSC[C@H](NC1=O)C(=O)N[C@@H]([C@@H](C)O)C(=O)N[C@@H](C)C(=O)N[C@@H](CO)C(=O)N[C@@H]([C@@H](C)CC)C(=O)N1CCC[C@H]1C(=O)N1CCC[C@H]1C(=O)N[C@@H](CCC(N)=O)C(=O)N2
notes: also called Ex. 95
% inhibition at 100 µM [6]: 10.3% | % inhibition at 100 µM [3]: 0% | % inhibition at 100 µM [2]: 0% | % inhibition at 100 µM [5]: 11.3% | % inhibition at 100 µM (Chymase, from human skin): 0%

B10: Example 98 (peptide)
peptide: XCTASIPPQCX
HELM: PEPTIDE1{[Nle].C.T.A.S.I.P.P.Q.C.[Phg].[dP].P}$PEPTIDE1,PEPTIDE1,2:R3-10:R3|PEPTIDE1,PEPTIDE1,1:R1-13:R2$$$V2.0
SMILES: CCCC[C@@H]1NC(=O)[C@@H]2CCCN2C(=O)[C@H]2CCCN2C(=O)[C@H](c2ccccc2)NC(=O)[C@@H]2CSSC[C@H](NC1=O)C(=O)N[C@@H]([C@@H](C)O)C(=O)N[C@@H](C)C(=O)N[C@@H](CO)C(=O)N[C@@H]([C@@H](C)CC)C(=O)N1CCC[C@H]1C(=O)N1CCC[C@H]1C(=O)N[C@@H](CCC(N)=O)C(=O)N2
notes: also called Ex. 98
% inhibition at 100 µM [6]: 0% | % inhibition at 100 µM [2]: 0% | % inhibition at 100 µM [4]: 0% | % inhibition at 100 µM [5]: 0% | % inhibition at 100 µM (Chymase, from human skin): 0%

B11: Example 102 (peptide)
peptide: XCTASIPPQCY
HELM: PEPTIDE1{[CCCCCCCC[C@H](N[*:1])C(=O)[*:2]].C.T.A.S.I.P.P.Q.C.Y.[dP].P}$PEPTIDE1,PEPTIDE1,2:R3-10:R3|PEPTIDE1,PEPTIDE1,1:R1-13:R2$$$V2.0
SMILES: CCCCCCCC[C@@H]1NC(=O)[C@@H]2CCCN2C(=O)[C@H]2CCCN2C(=O)[C@H](Cc2ccc(O)cc2)NC(=O)[C@@H]2CSSC[C@H](NC1=O)C(=O)N[C@@H]([C@@H](C)O)C(=O)N[C@@H](C)C(=O)N[C@@H](CO)C(=O)N[C@@H]([C@@H](C)CC)C(=O)N1CCC[C@H]1C(=O)N1CCC[C@H]1C(=O)N[C@@H](CCC(N)=O)C(=O)N2
% inhibition at 100 µM [2]: 0% | % inhibition at 100 µM [4]: 0% | % inhibition at 100 µM [5]: 0% | % inhibition at 100 µM (Chymase, from human skin): 0%

Now from value to binder:

% inhibition at 100 µM [1]: 76% | % inhibition at 100 µM [2]: 0%
B1: Example 179 (peptide)
peptide: XCTASIPPQCY
HELM: PEPTIDE1{[Nle].C.T.A.S.I.P.P.Q.C.Y.[dP].P}$PEPTIDE1,PEPTIDE1,2:R3-10:R3|PEPTIDE1,PEPTIDE1,1:R1-13:R2$$$V2.0
SMILES: CCCC[C@@H]1NC(=O)[C@@H]2CCCN2C(=O)[C@H]2CCCN2C(=O)[C@H](Cc2ccc(O)cc2)NC(=O)[C@@H]2CSSC[C@H](NC1=O)C(=O)N[C@@H]([C@@H](C)O)C(=O)N[C@@H](C)C(=O)N[C@@H](CO)C(=O)N[C@@H]([C@@H](C)CC)C(=O)N1CCC[C@H]1C(=O)N1CCC[C@H]1C(=O)N[C@@H](CCC(N)=O)C(=O)N2

% inhibition at 100 µM [3]: 0% | % inhibition at 100 µM [4]: 28.3% | % inhibition at 100 µM [5]: 0%
B2: Example 125 (peptide)
peptide: XCTASIPPQCY
HELM: PEPTIDE1{[Nle].C.T.A.S.I.P.P.Q.C.Y.[dP].V}$PEPTIDE1,PEPTIDE1,2:R3-10:R3|PEPTIDE1,PEPTIDE1,1:R1-13:R2$$$V2.0
SMILES: CCCC[C@@H]1NC(=O)[C@H](C(C)C)NC(=O)[C@H]2CCCN2C(=O)[C@H](Cc2ccc(O)cc2)NC(=O)[C@@H]2CSSC[C@H](NC1=O)C(=O)N[C@@H]([C@@H](C)O)C(=O)N[C@@H](C)C(=O)N[C@@H](CO)C(=O)N[C@@H]([C@@H](C)CC)C(=O)N1CCC[C@H]1C(=O)N1CCC[C@H]1C(=O)N[C@@H](CCC(N)=O)C(=O)N2

% inhibition at 100 µM [1]: 68.7% | % inhibition at 100 µM [3]: 0% | % inhibition at 100 µM (Chymase, from human skin): 0%
B3: Example 137 (peptide)
peptide: XCTASIPPQCF
HELM: PEPTIDE1{[Nle].C.T.A.S.I.P.P.Q.C.F.[dP].P}$PEPTIDE1,PEPTIDE1,2:R3-10:R3|PEPTIDE1,PEPTIDE1,1:R1-13:R2$$$V2.0
SMILES: CCCC[C@@H]1NC(=O)[C@@H]2CCCN2C(=O)[C@H]2CCCN2C(=O)[C@H](Cc2ccccc2)NC(=O)[C@@H]2CSSC[C@H](NC1=O)C(=O)N[C@@H]([C@@H](C)O)C(=O)N[C@@H](C)C(=O)N[C@@H](CO)C(=O)N[C@@H]([C@@H](C)CC)C(=O)N1CCC[C@H]1C(=O)N1CCC[C@H]1C(=O)N[C@@H](CCC(N)=O)C(=O)N2
notes: also called Ex. 137

% inhibition at 100 µM [1]: 80.6% | % inhibition at 100 µM [2]: 0% | % inhibition at 100 µM [5]: 0% | % inhibition at 100 µM (Chymase, from human skin): 0%
B7: Example 144 (peptide)
peptide: XCTASIPPQCX
HELM: PEPTIDE1{[Nle].C.T.A.S.I.P.P.Q.C.[O=C([C@H](Cc1ccccc1Cl)N[*:1])[*:2]].[dP].P}$PEPTIDE1,PEPTIDE1,2:R3-10:R3|PEPTIDE1,PEPTIDE1,1:R1-13:R2$$$V2.0
SMILES: CCCC[C@@H]1NC(=O)[C@@H]2CCCN2C(=O)[C@H]2CCCN2C(=O)[C@H](Cc2ccccc2Cl)NC(=O)[C@@H]2CSSC[C@H](NC1=O)C(=O)N[C@@H]([C@@H](C)O)C(=O)N[C@@H](C)C(=O)N[C@@H](CO)C(=O)N[C@@H]([C@@H](C)CC)C(=O)N1CCC[C@H]1C(=O)N1CCC[C@H]1C(=O)N[C@@H](CCC(N)=O)C(=O)N2

% inhibition at 100 µM [1]: 72.9% | % inhibition at 100 µM [3]: 0% | % inhibition at 100 µM [4]: 12.8%
B9: Example 168 (peptide)
peptide: XCTASIPPQCY
HELM: PEPTIDE1{[Nle].C.T.A.S.I.P.P.Q.C.Y.[dP].D}$PEPTIDE1,PEPTIDE1,2:R3-10:R3|PEPTIDE1,PEPTIDE1,1:R1-13:R2$$$V2.0
SMILES: CCCC[C@@H]1NC(=O)[C@H](CC(=O)O)NC(=O)[C@H]2CCCN2C(=O)[C@H](Cc2ccc(O)cc2)NC(=O)[C@@H]2CSSC[C@H](NC1=O)C(=O)N[C@@H]([C@@H](C)O)C(=O)N[C@@H](C)C(=O)N[C@@H](CO)C(=O)N[C@@H]([C@@H](C)CC)C(=O)N1CCC[C@H]1C(=O)N1CCC[C@H]1C(=O)N[C@@H](CCC(N)=O)C(=O)N2
notes: also called Ex. 168
